This data set deals with MS2 coat protein. The experiment in a line: apparent KD of MS2 coat protein; higher = weaker reporter binding. The settings on record: Eterna round: R107. In short, it runs like this: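 On-chip transcription from Illumina sequencing clusters produced the designed RNA switches. These were titrated with SNAP-549-labelled MS2 coat protein (twofold steps, 0.7 or 1.5 nM to 3 µM) in 100 mM Tris-HCl pH 7.5, 80 mM KCl, 4 mM MgCl2, with or without constant ligand. The apparent KD given is the per-design median of normalised cluster binding-curve fits.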

[1] abbreviates: input ligand: theophylline 20 uM.
[2] abbreviates: input ligand: theophylline 2 mM.
Where [3] appears, read: input ligand: tryptophan 2.4 mM.

Regarding “UAAUCUGGUCUUCGAUAGGUGAUCCUCAAACGAGGACCGGUACGGCCGCCACUCGAUAACAUGAGGAUCACCCAUGUACGAGUGA [|T'-M'-Trp-Ms2|_Design16b]”, the “apparent KD of MS2 coat protein” value was found to be 52.8 nM (input ligand: arginine 13.2 mM); 134 nM (input ligand: none); 155 nM under setting [1]; 205 nM under setting [2]; 119 nM under setting [3].

Regarding “AUCGCACCUGGUGAUACCAGCGUUUGCUCGCGACAUGAGGAUCACCCAUGUGGCCAGUGAUGCCCUUGGCAGCAUGGUCGGUGCA [Same State - Theophylline B (Freestyle 27)]”, the “apparent KD of MS2 coat protein” value (input ligand: arginine 13.2 mM) stood at 75.5 nM, the “apparent KD of MS2 coat protein” value under setting [1] turned out to be 309 nM and the “apparent KD of MS2 coat protein” value under setting [3] stood at 314 nM.

Take “CUGGCAGGAUGAUCCGCUGUCAGGGCUGAUACCAGCCACGAAAGUGGCCCUUGGCAGCAGCAAACAUGAGGAUCACCCAUGUAAA [(T)''-(M)'-(T)'-(Theo)-(Ms2)_Design2]”: the “apparent KD of MS2 coat protein” value reads like this: (input ligand: arginine 13.2 mM) 54.7 nM; under setting [1], 230 nM; under setting [3], 108 nM.

Regarding “CUCUGAGUCCGCAAGGACUCAGAGGCGGAUACCAGCGAGGUCCAUCGCCCUUGGCAGCCGAACAUGAGGAUCACCCAUGUCGGUA [#1 Same State - Theophylline A Attempt #27 (HarryS)]”, the “apparent KD of MS2 coat protein” value reads like this: (input ligand: arginine 13.2 mM) 8.89 nM; under setting [1], 14.5 nM; under setting [3], 10.9 nM.

Turning to “AUUUACAUGGUCAUAUAUAUAUCGUCAGAUACCAGACGAGAUAUUGUCCCUUGGCAGCUGUUACAUGAGGAUCACCCAUGUAAUU [JR_Nu_ExcTheophyA_Sub021]”, the “apparent KD of MS2 coat protein” value turned out to be 41 nM (input ligand: arginine 13.2 mM), 56.4 nM under setting [1] and 64.7 nM under setting [3].

With “ACGGAGAUUGCUAAAUGUUGGCGAGCGGAUACCAGCCUAUUAUUGGGCCCUUGGCAGCCGACAUGAGGAUCACCCAUGUAAACAA [Berere]”, the “apparent KD of MS2 coat protein” value reads like this: (input ligand: arginine 13.2 mM) 9.36 nM; under setting [1], 90.8 nM; under setting [3], 76.7 nM.

On to “UGUAUGUGAUCUGAUACCAGAGUGACGCGAAAGCGAUAACCUGAGGAUCACCCUGGUAAACUCCCUUGGCAGCAGAUCGCAUACU”, for which the “apparent KD of MS2 coat protein” value was found to be 53.7 nM (input ligand: arginine 13.2 mM); 75.3 nM (input ligand: none); 60.2 nM under setting [1]; 24 nM under setting [2]; 79.7 nM under setting [3].

For the sequence “GUCAGAACAUAUCAUGUUCUGGCACUGGAAGGAGCGAGCGAGAGCUCAGGUAGGUCGCCAGAACAUGAGGAUCACCCAUGUAAUA [(A)''-(M)'-(A)'(Arg1)-(Arg2)-(M1)-(M2)_Design11]”, the “apparent KD of MS2 coat protein” value was found to be 50.5 nM (input ligand: arginine 13.2 mM); 63.4 nM (input ligand: none); 95.2 nM under setting [1]; 296 nM under setting [2]; 49 nM under setting [3].

For “AUGCACGGGCUAAUCUGCGAUUGGCACGAUACCAGAGAUCAAGACCUCCCUUGGCAGCGUGUCACAUGAGGAUCACCCAUGUGGA [theeternabot_exclusion_MS2_Theo_A_40]”, the “apparent KD of MS2 coat protein” value runs as follows: (input ligand: arginine 13.2 mM) 43.4 nM; under setting [1], 127 nM; under setting [3], 141 nM.

Turning to “GACUAUAUGAUAUGUCAGAAAUCCUCGAAACGAGGACCGGUACGGCCGCCACUCGAGUGAUCAACAUGAGGAUCACCCAUGUAAA [Tryp A Ex t1]”, the “apparent KD of MS2 coat protein” value runs as follows: (input ligand: arginine 13.2 mM) 36.1 nM; (input ligand: none) 36.2 nM; under setting [1], 47.5 nM; under setting [2], 28.4 nM; under setting [3], 55.3 nM.

As to “UACAUGAGGAUCACCCAUGUCCCAUGUGAACGAGGACCGGUACGGCCGCCACUCGACCGAGGCGGCACAUGAGGAUCACCCGCAU [whbob_SS_trypto A_2s15]”, the “apparent KD of MS2 coat protein” value (input ligand: arginine 13.2 mM) amounted to 121 nM, the “apparent KD of MS2 coat protein” value under setting [1] worked out at 917 nM and the “apparent KD of MS2 coat protein” value under setting [2] came out at 1140 nM.

Consider “GUUGUAUACUCGGCCGCCACUGAGAGAGUCAUGUGAACAUGAGGAUCACCCAUGUAAUAUAUAUACAGGACCGGGAGUGUGGUAA [4.H]”, for which the “apparent KD of MS2 coat protein” value is, setting by setting: (input ligand: arginine 13.2 mM) 14.5 nM; (input ligand: none) 16.8 nM; under setting [1], 16.5 nM; under setting [2], 14.4 nM; under setting [3], 15.8 nM.

“UGCUAGUGAUCGGCCGCCACUGGCACCUUGAGGAUCCUGCUAAAGUACAUGAGGAUCACCCAUGUCAGGACCGGGAUCAUCAGUG [Onveusonri]”: the “apparent KD of MS2 coat protein” value came to 9.02 nM (input ligand: arginine 13.2 mM), 11.8 nM under setting [1] and 10.8 nM under setting [2].

Turning to “UACAUACAUGAGGAUCACCCAUGUUGCGAUACCAGCGAAAGAGACCGCCCUUGGCAGCGCUCAUUUAGUUCCAUUCUUGAUCGAA [theeternabot_sameState_MS2_Theo_A_4]”, the “apparent KD of MS2 coat protein” value came to 14.5 nM (input ligand: arginine 13.2 mM), 23.7 nM under setting [1] and 14.7 nM under setting [3].

With “UGCAAAUGAUGAGAUACCAGUUCAGUUAAAUACAUGAGGAUCACCCAUGUCAGGGAACUCAACCCUUGGCAGCUCGAUGCACUCA [theeternabot_sameState_MS2_Theo_B_43]”, the “apparent KD of MS2 coat protein” value was 48 nM (input ligand: arginine 13.2 mM), 56.7 nM under setting [1] and 59 nM under setting [3].

“UGUGCAUGAGUUGUAAAAGCUCAUGGGCAUCGAGGACCGGUACGGCCGCCACUCGGCUGUACAUGAGGAUCACCCAUGUCAGGGU [#1 Same State - Tryptophan A Attempt #22 (HarryS)]”: the “apparent KD of MS2 coat protein” value came out at 133 nM (input ligand: arginine 13.2 mM), 609 nM under setting [1] and 1100 nM under setting [2].

In the case of “UGAUGGUACGGAAGGAGCGUGUAAGAACAAGAACAUGAGGAUCACCCAUGUAUUAAUUUAACACAGGUAGGUCGCCGAGUUAUUG [11.G]”, the “apparent KD of MS2 coat protein” value reads like this: (input ligand: arginine 13.2 mM) 17.8 nM; (input ligand: none) 17.3 nM; under setting [1], 26.7 nM; under setting [2], 23.2 nM; under setting [3], 16.5 nM.

For the sequence “ACCUACACGGAGACGUGUAGGAGUAAUGAUACCAGCAUGGAGACAUGCCCUUGGCAGCGUUACAUGAGGAUCACCCAUGUGGUGC [ETHA #6]”, the “apparent KD of MS2 coat protein” value by setting is: (input ligand: arginine 13.2 mM) 19.1 nM; under setting [1], 37.4 nM; under setting [3], 21.6 nM.

As to “UAGAAGAACAUGCGGGCUCCGGACGGUGAUACCAGAUCGAAAAGGAUCCCUUGGCAGCACUGCACAUGAGGAUCACCCAUGUGCA [theeternabot_exclusion_MS2_Theo_A_7]”, the “apparent KD of MS2 coat protein” value runs as follows: (input ligand: arginine 13.2 mM) 11.8 nM; under setting [1], 11 nM; under setting [3], 10.1 nM.

Take “ACGUAAUGCAGAAGGAGCGUCGACCUCUUACAUGAGGAUCACCCAUGUUGCAUGGUUGUACGACAGGUAGGUCGCUGAAGUACGA [#05 Exclusion - Arginine B]”: the “apparent KD of MS2 coat protein” value was 34.5 nM (input ligand: arginine 13.2 mM); 38.2 nM (input ligand: none); 89.5 nM under setting [1]; 68.1 nM under setting [2]; 65.4 nM under setting [3].

As for “UUUUUCGCGUUUGAUACCAGCAGAGUUGUUCUGGUCUGGUACAUGAGGAUCACCCAUGUCUGCCCUUGGCAGCAAACGGGAGAAG [XTheo #30]”, the “apparent KD of MS2 coat protein” value (input ligand: arginine 13.2 mM) turned out to be 14.5 nM, the “apparent KD of MS2 coat protein” value under setting [1] was determined as 15 nM and the “apparent KD of MS2 coat protein” value under setting [3] came to 14.8 nM.

As for “UUGAUCAUAUAUGAAAACAUAUAUGCAGAAGGAGCGUGAUAAAACACAGGUAGGUCGCUGAAGGGAACAUGAGGAUCACCCAUGU [AstrosSSArgA#3]”, the “apparent KD of MS2 coat protein” value by setting is: (input ligand: arginine 13.2 mM) 30.2 nM; (input ligand: none) 27.2 nM; under setting [1], 39.4 nM; under setting [2], 34.1 nM; under setting [3], 26.8 nM.

Regarding “AAUAAUAUGAGGAUCACCCAUAUAAAAGAUACCAGAGUGAUGAUCCUCCCUUGGCAGCUUAACGCUGAUUGAUUACAAUCAGCGA”, the “apparent KD of MS2 coat protein” value is, setting by setting: (input ligand: arginine 13.2 mM) 68.7 nM; (input ligand: none) 47.5 nM; under setting [1], 85 nM; under setting [2], 234 nM; under setting [3], 25.5 nM.

“UGCCCUGCGAGCGCUCGCAGGGCAGCGGAUACCAGCGAGGUCCAUCGCCCUUGGCAGCCGAACAUGAGGAUCACCCAUGUCGGUG [Same State - Theophylline A Attempt #9 (HarryS)]”: the “apparent KD of MS2 coat protein” value (input ligand: arginine 13.2 mM) came out at 11.4 nM; the “apparent KD of MS2 coat protein” value (input ligand: none) is 14.1 nM; the “apparent KD of MS2 coat protein” value under setting [1] worked out at 18.9 nM; the “apparent KD of MS2 coat protein” value under setting [2] is 144 nM; the “apparent KD of MS2 coat protein” value under setting [3] worked out at 13.2 nM.

As to “GCUGGGUGCGCAAGGACCUGGCGUUGCGAUACCAGCACGGUAACGUGCCCUUGGCAGCGCACAUGAGGAUCACCCAUGUGGUGUU [#1 Exclusion - Theophylline A Attempt #19 (HarryS)]”, the “apparent KD of MS2 coat protein” value reads like this: (input ligand: arginine 13.2 mM) 62.8 nM; under setting [1], 360 nM; under setting [3], 221 nM.

Consider “UCCUCAUGGCAUGAUACCAGACCUAACAUGAGGAUCACCCAUGUAUCAGGCAAUUGUUACGUCCCUUGGCAGCAUGUAUGCCGAC [Theo B SS t4]”, for which the “apparent KD of MS2 coat protein” value by setting is: (input ligand: arginine 13.2 mM) 33.6 nM; under setting [1], 91.1 nM; under setting [3], 60.8 nM.

(Values after the supplement of paper PMC9170038.)
